The data set addresses T1, CBX8-directed TALE-omega (synthetic construct, UniProt Q56830 SEQ:41-724).
T1 chain: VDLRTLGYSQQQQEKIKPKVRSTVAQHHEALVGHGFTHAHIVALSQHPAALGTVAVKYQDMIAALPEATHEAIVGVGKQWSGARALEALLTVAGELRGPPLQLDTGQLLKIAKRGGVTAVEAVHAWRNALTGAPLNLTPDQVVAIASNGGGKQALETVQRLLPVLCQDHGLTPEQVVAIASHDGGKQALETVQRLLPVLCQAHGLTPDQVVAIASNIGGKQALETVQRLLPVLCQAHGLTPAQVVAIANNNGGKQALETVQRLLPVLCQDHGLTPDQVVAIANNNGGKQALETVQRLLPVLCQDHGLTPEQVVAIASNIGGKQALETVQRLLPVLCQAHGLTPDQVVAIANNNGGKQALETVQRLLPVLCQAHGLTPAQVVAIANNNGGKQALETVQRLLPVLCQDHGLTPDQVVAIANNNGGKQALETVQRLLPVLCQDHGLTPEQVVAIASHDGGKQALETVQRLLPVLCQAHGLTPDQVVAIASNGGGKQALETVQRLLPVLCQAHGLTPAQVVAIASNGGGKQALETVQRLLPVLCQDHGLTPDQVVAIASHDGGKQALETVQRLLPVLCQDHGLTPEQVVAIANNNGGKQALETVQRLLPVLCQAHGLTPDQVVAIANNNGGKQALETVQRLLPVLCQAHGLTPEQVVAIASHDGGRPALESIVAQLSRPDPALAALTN
As to the kind of experiment: one_hybrid; luciferase induction, 18 aa C-terminus plus GGGGS linker. The settings on record: tags: N-terminal FLAG-NLS, C-terminal RNAP omega. As for the experimental part: This system was used to continuously evolve TALE proteins with novel properties. A series of C-terminal fusions between a previously reported TALE array targeting CBX8 (right half-site TALE)¹⁸, and the RNAP w subunit were tested. […] The sequence specificity of the system was verified using an off-target sequence in the luciferase assay, and performed on- and off-target colorimetric plaque assays using TALE-ω SP and host cells harboring the AP containing the target CBX8 sequence. Similar to the findings with zinc fingers, both luciferase expression and phage propagation were dependent on the presence of the cognate TALE binding site (FIG. 10B). Finally, PACE was performed for 24 h on the cognate AP to optimize the SP backbone.
Luciferase assay. pOH plasmids were transformed by electroporation into S1030 cells, and grown overnight at 37° C. on LB-agar plates supplemented with 50 μg/mL carbenicillin. Single colonies were used to inoculate cultures which were allowed to grow for ˜12 h at 37° C. in DRM supplemented with 50 μg/mL carbenicillin in a shaker. Cultures were diluted to an OD₆₀₀ of ˜0.3 and allowed to grow for an additional 2 h at 37° C. […] 200 μL aliquots of each sample were then transferred to 96-well opaque plates and luminescence and OD₆₀₀ readings were taken using a Tecan Infinite Pro instrument. Luminescence data were normalized to cell density by dividing by the OD₆₀₀ value.

Data on one molecule can be found in US20240200044, “EVOLUTION OF TALENS” (President and Fellows of Harvard College, published 2024).

Bounds are passed on as bounds.

B1: CBX8 5'T site (dsDNA)
DNA 1: TTCAGGAGGGCTTCGGC
DNA 2: GCCGAAGCCCTCCTGAA
As to B1, the binding signal was above 10 fold.
